Experiment [1] concerns the target T1, hTIGIT variant 3 (Q62H and Q64H)-CD4TM-GFP on HEK-293T cells (human, UniProt Q495A1 22-141).
T1 construct: not shown: transmembrane domain of CD4 (CD4TM); GFP tag
T1 chain: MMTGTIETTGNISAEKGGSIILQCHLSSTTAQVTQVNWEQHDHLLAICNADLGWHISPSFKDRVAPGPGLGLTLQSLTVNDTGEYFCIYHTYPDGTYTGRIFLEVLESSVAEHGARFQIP
As to the kind of experiment: FACS on transfected HEK-293T cells. As to the method:
(§1) To identify the binding epitope of antibody 313M32, an analysis was performed with a series of variants of human TIGIT with specific amino acid substitutions. The variants were based upon the differences between human TIGIT and cynomolgus TIGIT amino acid sequences, SEQ ID NO:4 and SEQ ID NO:77, respectively. The amino acid sequence of rhesus monkey TIGIT (SEQ ID NO:78) is identical to cynomolgus TIGIT (FIG. 21). The amino acid variants introduce amino acid residues present in cynomolgus monkey TIGIT into corresponding positions in human TIGIT. The hTIGIT variants generated have substitutions at (1) E36K and […]; (2) T51M, (3) Q62H and Q64H, (4) D72E, (5) S78Y and S80A, (6) V100M, (7) I109T and T119R, and (8) G135S. Each variant hTIGIT was generated using the hTIGIT (aa 22-141)-CD4TM-GFP construct described in Example 15.
(§2) The TIGIT variants were evaluated by FACS with anti-hTIGIT antibodies. […] After 16 hours, transfected cells were suspended in ice cold HBSS containing 2% FBS and incubated on ice with 1 μg/ml anti-hTIGIT antibodies 313R12, 313M32, or 313M34 for 30 minutes. 313M34 is an anti-hTIGIT antibody that was generated based upon the amino acid sequences of the 10A7 antibody described in U.S. Publication 2009/0258013. […] The cells were analyzed on a FACSCanto instrument (BD Biosciences) and the data was processed using FlowJo software.

In experiment [2] the target is T2, hTIGIT variant 7 (I109T and T119R)-CD4TM-GFP on HEK-293T cells (human, UniProt Q495A1 22-141).
T2 construct: not shown: transmembrane domain of CD4 (CD4TM); GFP tag
T2 chain: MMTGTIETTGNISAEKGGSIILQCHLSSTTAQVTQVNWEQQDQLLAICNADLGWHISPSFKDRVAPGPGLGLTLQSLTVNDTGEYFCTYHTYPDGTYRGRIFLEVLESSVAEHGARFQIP
As to the kind of experiment: FACS on transfected HEK-293T cells. As to the method:
as §1, §2

The target in a further experiment is T3, human TIGIT (human, UniProt Q495A1 22-141, limits assumed).
T3 construct: also called hTIGIT
T3 sequence: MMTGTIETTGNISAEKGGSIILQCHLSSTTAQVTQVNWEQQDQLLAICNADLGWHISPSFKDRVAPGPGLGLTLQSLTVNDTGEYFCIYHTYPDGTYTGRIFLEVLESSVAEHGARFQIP
As to the kind of experiment: Biacore, preliminary; format not stated. For orientation: Surface plasmon resonance follows binding to a sensor surface in real time, without labels.

Experiment [3] concerns the target T4, hTIGIT variant 1 (E36K and I41V)-CD4TM-GFP on HEK-293T cells (human, UniProt Q495A1 22-141).
T4 construct: read as I41V; not shown: transmembrane domain of CD4 (CD4TM); GFP tag
T4 chain: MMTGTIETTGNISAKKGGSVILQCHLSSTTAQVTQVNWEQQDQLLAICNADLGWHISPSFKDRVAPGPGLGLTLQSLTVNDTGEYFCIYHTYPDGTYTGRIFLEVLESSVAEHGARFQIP
As to the kind of experiment: FACS, 1 µg/ml antibody on transfected HEK-293T cells. As to the method: as §1
(§3) The TIGIT variants were evaluated by FACS with anti-hTIGIT antibodies. […] After 16 hours, transfected cells were suspended in ice cold HBSS containing 2% FBS and incubated on ice with 1 μg/ml anti-hTIGIT antibodies 313R12, 313M32, or 313M34 for 30 minutes. 313M34 is an anti-hTIGIT antibody that was generated based upon the amino acid sequences of the 10A7 antibody described in U.S. Publication 2009/0258013. The 10A7 antibody is an anti-mouse TIGIT antibody that binds both mouse TIGIT and human TIGIT. A second incubation with 50 μl PE-conjugated anti-Fc secondary antibody was performed to detect cells bound by the antibodies. The cells were analyzed on a FACSCanto instrument (BD Biosciences) and the data was processed using FlowJo software.

The target in experiment [4] is T5, hTIGIT variant 2 (T51M)-CD4TM-GFP on HEK-293T cells (human, UniProt Q495A1 22-141).
T5 construct: not shown: transmembrane domain of CD4 (CD4TM); GFP tag
T5 chain: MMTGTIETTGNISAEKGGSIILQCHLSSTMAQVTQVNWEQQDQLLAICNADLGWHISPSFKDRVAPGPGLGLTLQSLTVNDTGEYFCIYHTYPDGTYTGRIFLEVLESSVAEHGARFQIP
Described as above. As to the method: as §1, §3

Experiment [5] has as its target T6, hTIGIT variant 4 (D72E)-CD4TM-GFP on HEK-293T cells (human, UniProt Q495A1 22-141).
T6 construct: not shown: transmembrane domain of CD4 (CD4TM); GFP tag
T6 chain: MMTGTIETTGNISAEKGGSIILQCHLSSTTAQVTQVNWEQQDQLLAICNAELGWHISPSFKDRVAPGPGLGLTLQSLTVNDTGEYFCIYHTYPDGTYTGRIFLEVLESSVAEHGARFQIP
The experiment is described as above. As to the method:
as §1, §3

Experiment [6] concerns the target T7, hTIGIT variant 5 (S78Y and S80A)-CD4TM-GFP on HEK-293T cells (human, UniProt Q495A1 22-141).
T7 construct: not shown: transmembrane domain of CD4 (CD4TM); GFP tag
T7 chain: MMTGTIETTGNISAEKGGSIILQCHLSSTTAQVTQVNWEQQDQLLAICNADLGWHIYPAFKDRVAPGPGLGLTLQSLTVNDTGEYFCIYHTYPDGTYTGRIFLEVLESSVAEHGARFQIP
The experiment is described as above. As to the method:
as §1, §3

The target in experiment [7] is T8, hTIGIT variant 6 (V100M)-CD4TM-GFP on HEK-293T cells (human, UniProt Q495A1 22-141).
T8 construct: not shown: transmembrane domain of CD4 (CD4TM); GFP tag
T8 chain: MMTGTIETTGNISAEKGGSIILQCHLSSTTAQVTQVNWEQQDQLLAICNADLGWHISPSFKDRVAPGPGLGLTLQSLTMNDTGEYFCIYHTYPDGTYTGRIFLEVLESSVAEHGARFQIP
Described as above. As to the method: as §1, §3

Experiment [8] deals with T9, hTIGIT variant 8 (G135S)-CD4TM-GFP on HEK-293T cells (human, UniProt Q495A1 22-141).
T9 construct: not shown: transmembrane domain of CD4 (CD4TM); GFP tag
T9 chain: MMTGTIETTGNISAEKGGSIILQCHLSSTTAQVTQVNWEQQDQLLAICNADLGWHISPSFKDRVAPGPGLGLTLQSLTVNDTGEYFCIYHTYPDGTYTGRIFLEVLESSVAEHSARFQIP
The experiment is described as above. As to the method: as §1, §3

The target of experiment [9] is T10, hTIGIT-CD4TM-GFP on HEK-293T cells (human, UniProt Q495A1 22-141).
T10 construct: Cell surface fusion protein, transiently expressed; also called human TIGIT ECD-CD4TM-GFP; FLAG-hTIGIT-CD4TM-GFP; not shown: transmembrane domain of CD4 (CD4TM); C-terminal GFP protein tag
T10 sequence: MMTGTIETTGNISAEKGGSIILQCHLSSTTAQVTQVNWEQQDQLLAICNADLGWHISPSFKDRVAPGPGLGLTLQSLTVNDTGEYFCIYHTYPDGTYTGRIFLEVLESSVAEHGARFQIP
As to the kind of experiment: inferred from two blocking studies of hPVR-rbFc binding to hTIGIT cells, flow cytometry. As to the method: After 16 hours, transfected cells were suspended in ice cold HBSS containing 2% FBS and heparin and incubated on ice with 0.5 μg/ml hPVR-rbFc fusion protein in the presence of anti-TIGIT antibodies 313R19, 313M26, or 313M32 for 60 minutes. Antibody 313R19 is a humanized version of a rabbit anti-TIGIT antibody. 313R19 binds mouse and human TIGIT. The antibodies were tested at concentrations of 10, 2, and 0.4 ug/ml. Cells were incubated without antibody or without hPVR-rbFc as controls. A second incubation with 100 μl PE-conjugated anti-rabbit Fc secondary antibody was performed to detect cells bound by the hPVR-rbFc fusion protein. The cells were analyzed on a FACSCanto instrument (BD Biosciences) and the data was processed using FlowJo software.
All three anti-TIGIT antibodies blocked binding of hPVR-rbFc to hTIGIT at the highest concentration of 10 μg/ml.
(In general: A flow cytometer gives signals particle by particle.)

Experiment [10] concerns the target T11, mouse TIGIT ECD-CD4TM-GFP on HEK-293T cells (mouse, UniProt P86176 29-148).
T11 construct: The legend names the construct as mouse TIGIT ECD; also called mouse TIGIT-CD4TM-GFP; mTIGIT-CD4TM-GFP; not shown: transmembrane domain of CD4 (CD4TM); GFP (green fluorescent protein)
T11 sequence: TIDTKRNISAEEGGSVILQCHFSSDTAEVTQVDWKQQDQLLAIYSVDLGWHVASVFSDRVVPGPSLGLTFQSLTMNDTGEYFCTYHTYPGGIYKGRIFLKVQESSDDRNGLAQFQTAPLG
The experiment in a line: flow cytometry, 1 µg/ml antibody on HEK-293T cells transiently transfected with mTIGIT-CD4TM-GFP, PE-conjugated anti-Fc secondary. As to the method: as §3

From patent US20190077864A1 (ONCOMED PHARMACEUTICALS, published 2019) come the findings set out here.

B1: anti-TIGIT antibody 313M32 (antibody, human IgG1, kappa, V domains shown)
VH: QVQLQESGPGLVKPSETLSLTCAVSGYSITSDYAWNWIRQPPGKGLEWIGYISYSGSTSYNPSLRSRVTISRDTSKNQFFLKLSSVTAADTAVYYCARRQVGLGFAYWGQGTLVTVSS
VL: DIQMTQSPSSLSASVGDRVTITCKASQDVSTAVAWYQQKPGKAPKLLIYSASYRYTGVPSRFSGSGSGTDFTFTISSLQPEDIATYYCQQHYSTPWTFGQGTKVEIKR
notes: Humanized version of 313M26, human IgG1
A word on the Kd: it is the free concentration of one partner at which half of the binding sites on the other are occupied at equilibrium, for simple one-to-one binding. Lower therefore signals a tighter complex. Turning to B1, the binding result is reported as “no binding (tested: 1 µg/ml)” in experiment [1]; “no binding (tested: 1 µg/ml)” in experiment [2]; “binds” in [3]; “binds” in experiment [4]; “binds” in experiment [5]; “binds” in experiment [6]. The binding result is listed as “binds” in experiment [7], “binds” in experiment [8] and “no binding (tested: 1 µg/ml)” in [10]. In the experiment with human TIGIT, this molecule showed a Kd of 0.4 nM. Moreover, the “fold higher affinity than antibody 313R19” value in [9] is approximately 5 fold.
